Key:
[1] = molecular target: T1, E. coli thioredoxin/human IL-11 fusion protein with enterokinase cleavage spacer, P20809
T1 chain: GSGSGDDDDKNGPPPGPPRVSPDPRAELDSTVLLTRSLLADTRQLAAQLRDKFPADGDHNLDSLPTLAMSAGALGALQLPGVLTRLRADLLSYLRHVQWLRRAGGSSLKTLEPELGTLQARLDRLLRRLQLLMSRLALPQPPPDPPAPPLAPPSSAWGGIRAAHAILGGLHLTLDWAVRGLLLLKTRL

[2] = molecular target: T2, Gly-(Asp4)-Lys-βNA fluorogenic enterokinase substrate
T2 chain: GDDDDK

[3] = molecular target: bovine pancreatic trypsin inhibitor (BPTI, Sigma), P00974
[4] = molecular target: T3, soybean trypsin inhibitor (STI, Sigma), P01070
T3 chain: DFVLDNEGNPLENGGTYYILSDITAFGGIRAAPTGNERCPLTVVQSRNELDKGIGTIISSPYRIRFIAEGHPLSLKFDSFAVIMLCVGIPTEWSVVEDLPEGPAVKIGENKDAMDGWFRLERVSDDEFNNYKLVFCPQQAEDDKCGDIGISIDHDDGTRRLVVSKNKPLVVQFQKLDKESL

B1: CHO-produced recombinant bovine enterokinase catalytic domain (light chain) (protein)
chain: IVGGSDSREGAWPWVVALYFDDQQVCGASLVSRDWLVSAAHCVYGRNMEPSKWKAVLGLHMASNLTSPQIETRLIDQIVINPHYNKRRKNNDIAMMHLEMKVNYTDYIQPICLPEENQVFPPGRICSIAGWGALIYQGSTADVLQEADVPLLSNEKCQQQMPEYNITENMVCAGYEAGGVDSCQGDSGGPLMCQENNRWLLAGVTSFGYQCALPNRPGVYARVPRFTEWIQSFLH
EFFICIENCY OF CLEAVAGE (relative molar activities) (relative molar activity) [1]: 25 | cleavage of fusion protein (SDS-PAGE) [1]: resulted in total and specific cleavage of this fusion protein into its two component domains (thioredoxin and IL-11) | EFFICIENCY OF CLEAVAGE (relative molar activities) (relative molar activity) [2]: 1 | EFFICIENCY OF CLEAVAGE (relative molar activities) (relative molar activity) (Trypsinogen): 1 | cleaving activity toward the fluorogenic enterokinase substrate Gly-(Asp4)-Lys-βNA [3]: This activity was inhibited by the addition of either soybean trypsin inhibitor (STI,Sigma) or bovine pancreatic trypsin inhibitor (BPTI, Sigma) | cleaving activity toward the fluorogenic enterokinase substrate Gly-(Asp4)-Lys-βNA [4]: This activity was inhibited by the addition of either soybean trypsin inhibitor (STI,Sigma) or bovine pancreatic trypsin inhibitor (BPTI, Sigma)

Reference: patent publication US6746859
